He/Con_2b and He/Con_2aR data for 18 molecules are collected here from patent US20180155451A1 (published 2018).

B1: GpH7-A5/GpH7-B3 variant Y300_19Q/GpL16-k0 (He Ab) (antibody, human IgG1, kappa)
heavy 1: not shown
heavy 2: not shown
light: DIVMTQSPLSLPVTPGEPASISCQASESLVHSNRNTYLHWYLQKPGQSPQLLIYKVSNRFSGVPDRFSGSGSGTDFTLKISRVEAEDVGVYYCSQNTHVPPTFGQGTKVEIERTVAAPSVFIFPPSDEQLKSGTASVVCLLNNFYPREAKVQWKVDNALQSGNSQESVTEQDSKDSTYSLSSTLTLSKADYEKHKVYACEVTHQGLSSPVTKSFNRGEC
notes: Substitution in one H chain only; position in EU numbering; also called Y300Q heterodimerized antibody
B2: GpH7-A5/GpH7-B3 variant S337_02A/GpL16-k0 (antibody, human IgG1, kappa)
heavy 1: not shown
heavy 2: not shown
light: B1 light
notes: Heterodimerized anti-glypican-3 IgG1; alteration in only one H chain (GpH7-B3 side); also called He Ab
B3: GpH7-A5/GpH7-B3 variant S337_06M/GpL16-k0 (antibody, human IgG1, kappa)
heavy 1: not shown
heavy 2: not shown
light: B1 light
notes: as for B2
B4: GpH7-A5/GpH7-B3 variant E333_07I/GpL16-k0 (antibody, human IgG1, kappa)
heavy 1: not shown
heavy 2: not shown
light: B1 light
notes: as for B2
B5: GpH7-A5/GpH7-B3 variant T335_12R/GpL16-k0 (antibody, human IgG1, kappa)
heavy 1: not shown
heavy 2: not shown
light: B1 light
notes: as for B2
B6: GpH7-A5/GpH7-B3 variant E333_08L/GpL16-k0 (antibody, human IgG1, kappa)
heavy 1: not shown
heavy 2: not shown
light: B1 light
notes: as for B2
B7: GpH7-A5/GpH7-B3 variant E333_09D/GpL16-k0 (antibody, human IgG1, kappa)
heavy 1: not shown
heavy 2: not shown
light: B1 light
notes: as for B2
B8: GpH7-A5/GpH7-B3 variant S337_04F/GpL16-k0 (antibody, human IgG1, kappa)
heavy 1: not shown
heavy 2: not shown
light: B1 light
notes: as for B2
B9: GpH7-A5/GpH7-B3 variant I336_18N/GpL16-k0 (antibody, human IgG1, kappa)
heavy 1: not shown
heavy 2: not shown
light: B1 light
notes: as for B2
B10: GpH7-A5/GpH7-B3 variant S337_11K/GpL16-k0 (antibody, human IgG1, kappa)
heavy 1: not shown
heavy 2: not shown
light: B1 light
notes: as for B2
B11: GpH7-A5/GpH7-B3 variant T335_05P/GpL16-k0 (antibody, human IgG1, kappa)
heavy 1: not shown
heavy 2: not shown
light: B1 light
notes: as for B2
B12: GpH7-A5/GpH7-B3 variant T335_06M/GpL16-k0 (antibody, human IgG1, kappa)
heavy 1: not shown
heavy 2: not shown
light: B1 light
notes: as for B2
B13: GpH7-A5/GpH7-B3 variant T335_01G/GpL16-k0 (antibody, human IgG1, kappa)
heavy 1: not shown
heavy 2: not shown
light: B1 light
notes: as for B2
B14: GpH7-A5/GpH7-B3 variant E333_15Y/GpL16-k0 (antibody, human IgG1, kappa)
heavy 1: not shown
heavy 2: not shown
light: B1 light
notes: as for B2
B15: GpH7-A5/GpH7-B3 variant S337_03V/GpL16-k0 (antibody, human IgG1, kappa)
heavy 1: not shown
heavy 2: not shown
light: B1 light
notes: as for B2
B16: GpH7-A5/GpH7-B3 variant S337_19Q/GpL16-k0 (antibody, human IgG1, kappa)
heavy 1: not shown
heavy 2: not shown
light: B1 light
notes: as for B2
B17: GpH7-A5/GpH7-B3 variant T335_02A/GpL16-k0 (antibody, human IgG1, kappa)
heavy 1: not shown
heavy 2: not shown
light: B1 light
notes: as for B2
B18: GpH7-A5/GpH7-B3 variant S337_12R/GpL16-k0 (antibody, human IgG1, kappa)
heavy 1: not shown
heavy 2: not shown
light: B1 light
notes: as for B2

The target of the first experiment is T1, FcγRIIb extracellular domain with C-terminal His tag (human, UniProt P31994 43-217).
T1 construct: extracellular domain; Expressed in FreeStyle293 cells; used as analyte in Biacore; also called FcgRIIb; 2b; not shown: C-terminal His tag
T1 sequence (looked up): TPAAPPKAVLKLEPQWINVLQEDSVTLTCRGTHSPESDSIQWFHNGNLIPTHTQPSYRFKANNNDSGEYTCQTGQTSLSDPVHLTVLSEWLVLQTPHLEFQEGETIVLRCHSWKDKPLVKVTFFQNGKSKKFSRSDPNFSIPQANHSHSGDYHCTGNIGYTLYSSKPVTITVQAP
Kind of experiment: SPR (Biacore), antibody captured on antigen-peptide chip, FcgRIIb as analyte; binding relative to GpH7-A5/GpH7-B3/GpL16-k0 (HeCon Ab) = 100.
As for B1, the He/Con_2b is 108 % of control.

The target in a further experiment is T2, FcγRIIb (extracellular domain, C-terminal His tag) (human, UniProt P31994 43-217).
T2 construct: extracellular domain; also called FcgRIIb; 2b; not shown: His tag attached to the C terminus
T2 sequence (looked up): T1 sequence (looked up)
Kind of experiment: SPR (Biacore), antibody captured on antigen-peptide chip, FcγR as analyte; relative binding amount. On the procedure: (§1) The heterodimerized antibodies He Abs in which one of the H chains was introduced with an alteration were assayed for their binding activities to each activating FcγR and inhibitory FcγR according to the method described in Example 4. […] The activating FcγRs in FIGS. 26, 27, 28, and 29 are FcγRIa, FcγRIIa (R), FcγRIIa (H), and FcγRIIIa, respectively.
(§2) Analysis of interaction between objective antibody and the FcγR was carried out using Biacore T100 (GE Healthcare). HBS-EP+ (GE Healthcare) was used as the running buffer, and the measurement temperature was set to 25° C. Chips produced by immobilizing the antigen peptide by the amine coupling method to a Series S Sencor Chip CM5 (GE Healthcare), or alternatively, chips produced by allowing preliminarily biotinylated antigen peptides to interact with and immobilize onto a Series S Sensor Chip SA (certified) (GE Healthcare) were used. Antibodies of interest were captured onto an antigen peptide-immobilized chip, and allowed to interact to each FcγR diluted with running buffer. To regenerate and repeatedly use the chip, the antibodies captured on the chip were washed off by reacting 10 mM glycine-HCl, pH 1.5.
For orientation: In SPR one partner is held on a chip, and binding of the other changes the refractive index at the surface.
In the case of B2, the He/Con_2b is 97.2 % of control (GpH7-A5/GpH7-B3/GpL16-k0 = 100). The same measure, in the same setting: the result for B3 reads 96.7 % of control (GpH7-A5/GpH7-B3/GpL16-k0 = 100); that for B4, 96.2 % of control (GpH7-A5/GpH7-B3/GpL16-k0 = 100). Still for that read-out and setting: the result for B5 reads 91.9 % of control (GpH7-A5/GpH7-B3/GpL16-k0 = 100); that for B6, 95 % of control (GpH7-A5/GpH7-B3/GpL16-k0 = 100); that for B7, 94.3 % of control (GpH7-A5/GpH7-B3/GpL16-k0 = 100). On the same count and under the same terms, the figure for B8 is 97.8 % of control (GpH7-A5/GpH7-B3/GpL16-k0 = 100); for B9 it is 97.6 % of control (GpH7-A5/GpH7-B3/GpL16-k0 = 100); for B10 it is 94.3 % of control (GpH7-A5/GpH7-B3/GpL16-k0 = 100). As to B11, the He/Con_2b is 99.9 % of control (GpH7-A5/GpH7-B3/GpL16-k0 = 100). Still for that read-out and setting: the result for B12 reads 99.4 % of control (GpH7-A5/GpH7-B3/GpL16-k0 = 100); that for B13, 96.7 % of control (GpH7-A5/GpH7-B3/GpL16-k0 = 100). On the same count and under the same terms, the result for B14 reads 94.4 % of control (GpH7-A5/GpH7-B3/GpL16-k0 = 100); that for B15, 98.9 % of control (GpH7-A5/GpH7-B3/GpL16-k0 = 100). On the same count and under the same terms, the figure for B16 is 99.7 % of control (GpH7-A5/GpH7-B3/GpL16-k0 = 100); for B17 it is 94 % of control (GpH7-A5/GpH7-B3/GpL16-k0 = 100); for B18 it is 99.5 % of control (GpH7-A5/GpH7-B3/GpL16-k0 = 100).

The target in another experiment is T3, FcγRIIa R (extracellular domain, C-terminal His tag) (human, UniProt P12318 34-217).
T3 construct: extracellular domain; also called FcgRIIa R type; 2aR; not shown: His tag attached to the C terminus
T3 sequence (looked up): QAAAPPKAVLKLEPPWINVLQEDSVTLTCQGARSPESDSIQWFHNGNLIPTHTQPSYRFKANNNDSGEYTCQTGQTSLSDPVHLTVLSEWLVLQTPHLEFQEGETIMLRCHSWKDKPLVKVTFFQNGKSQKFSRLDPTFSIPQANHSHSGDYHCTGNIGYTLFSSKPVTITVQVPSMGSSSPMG
The experiment is described as above. On the procedure:
as §1, §2
As to B2, the He/Con_2aR is 105 % of control (GpH7-A5/GpH7-B3/GpL16-k0 = 100). In the case of B3, the He/Con_2aR is 105 % of control (GpH7-A5/GpH7-B3/GpL16-k0 = 100).

For B4, the He/Con_2aR was 104 % of control (GpH7-A5/GpH7-B3/GpL16-k0 = 100). Take B5: the He/Con_2aR was 100 % of control (GpH7-A5/GpH7-B3/GpL16-k0 = 100). Same read-out and setting: the figure for B6 is 103 % of control (GpH7-A5/GpH7-B3/GpL16-k0 = 100); for B7 it is 103 % of control (GpH7-A5/GpH7-B3/GpL16-k0 = 100).

For B8, the He/Con_2aR is 105 % of control (GpH7-A5/GpH7-B3/GpL16-k0 = 100). On the same count and under the same terms, the result for B9 reads 104 % of control (GpH7-A5/GpH7-B3/GpL16-k0 = 100); that for B10, 103 % of control (GpH7-A5/GpH7-B3/GpL16-k0 = 100); that for B11, 104 % of control (GpH7-A5/GpH7-B3/GpL16-k0 = 100). On the same count and under the same terms, the result for B12 reads 105 % of control (GpH7-A5/GpH7-B3/GpL16-k0 = 100). Regarding B13, the He/Con_2aR was 104 % of control (GpH7-A5/GpH7-B3/GpL16-k0 = 100). In the case of B14, the He/Con_2aR was 101 % of control (GpH7-A5/GpH7-B3/GpL16-k0 = 100). Same read-out and setting: the result for B15 reads 106 % of control (GpH7-A5/GpH7-B3/GpL16-k0 = 100). On the same count and under the same terms, the figure for B16 is 106 % of control (GpH7-A5/GpH7-B3/GpL16-k0 = 100); for B17 it is 102 % of control (GpH7-A5/GpH7-B3/GpL16-k0 = 100); for B18 it is 107 % of control (GpH7-A5/GpH7-B3/GpL16-k0 = 100).
